Key:
[1] = system: four MCL cell lines; test: Cell viability by annexin-V/PI staining and flow cytometry, four lines together; format: cell-based, human; settings: Jeko-1, Z-138 and UPN-1 cell lines, 24 hours
Method: FIG. 4. FTY720 sensitizes MCL cell lines and primary patient tumor cells to milatuzumab-mediated cytotoxicity. (A) Four MCL cell lines and primary cells from 6 patients were treated with FTY720 and/or milatuzumab plus cross-linking antibodies at the indicated concentrations. (B) Patient characteristics. (C) Individual patient responses. (D) Representative histograms summarizing patient responses. Cell death was determined by annexin V/PI staining and flow cytometry at 24 hours. Data are shown as the percentage of annexin V−/PI− cells (live cells) and are normalized to untreated controls.
To assess lysosomal volume, FTY720 treated cells were incubated with LYSOTRACKER™ green DND-26. To assess lysosomal membrane permeability, FTY720 treated cells were incubated with acridine orange (MOLECULAR PROBES; INVITROGEN). For analysis of cell viability, MCL cell lines (0.5×10^6/ml) and primary cells (1×10^6/ml) were treated with FTY720, milatuzumab, and the combination of both. […] Cell viability was measured at 24 hours by dual staining with annexin-V FITC and propidium iodide (PI). A total of 10,000 events were collected and analyzed using WinMDI.
The in vitro survival of four MCL cell lines treated with FTY720, milatuzumab in the presence of a cross-linking antibody, and the combination of FTY720 and milatuzumab was determined at 24 hours by annexin-V/PI staining and flow cytometry. […]

[2] = system: Aspc-1; test: Flow cytometry of CD74, HLA-DR, CEACAM5 with directly labeled MAbs, with and without IFN-γ; format: cell-based
Method: (§1) Expression of CD74, HLA-DR, and carcinoembryonic antigen (CEACAM5) was determined in untreated cells and cells exposed to 200 U of IFN-γ for 48 h by flow cytometry. Cells were stained with directly labeled MAbs in comparison to a directly labeled human IgG control. Antibodies were labeled using ALEXA FLUOR® 488 (Invitrogen, Carlsbad, Calif.). For determination of cytoplasmic antigen expression, cells were permeabilized prior to staining using the BD CYTOFIX/CYTOPERM™ kit (BD Biosciences, San Jose, Calif.).

[3] = system: BxPC-3; test: as above; format: cell-based
Method: as §1

[4] = system: CAG; test: as above; format: cell-based
Method: as §1

[5] = system: Capan-1; test: as above; format: cell-based
Method: as §1

[6] = system: FSCCL; test: as above; format: cell-based
Method: as §1

[7] = system: HT29; test: as above; format: cell-based
Method: as §1

[8] = system: KMS11; test: as above; format: cell-based
Method: as §1

[9] = system: LS174T; test: as above; format: cell-based
Method: as §1

[10] = system: Lovo; test: as above; format: cell-based
Method: as §1

[11] = system: Moser; test: as above; format: cell-based
Method: as §1

[12] = system: Panc-1; test: as above; format: cell-based
Method: as §1

[13] = system: RL; test: as above; format: cell-based
Method: as §1

[14] = system: TU118; test: as above; format: cell-based
Method: as §1

[15] = system: U118; test: as above; format: cell-based
Method: as §1

[16] = system: U87; test: as above; format: cell-based
Method: as §1

[17] = multiple myeloma patients, 1.5 mg/kg twice weekly for 4 weeks; cited from earlier work
[18] = single agents, same dosage and delivery schedule; cited from earlier work

## milatuzumab: fully humanized monoclonal antibody specific for CD74
[1]
  activity as single agents: only modest activity
[2]; Aspc-1
  % change of cell surface expression with IFNγ: 121.3%
  % change of cytoplasmic expression with IFNγ: 1451.5%
[2]; Aspc-1 + IFNγ 200 U, 48 h
  Cell surface expression (staining with directly labeled MAb): 7.3
[2]; Aspc-1, without IFN-γ
  Cell surface expression (staining with directly labeled MAb): 3.3
[3]; BxPC-3
  % change of cell surface expression with IFNγ: 142.2%
  % change of cytoplasmic expression with IFNγ: 1763.5%
[3]; BxPC-3 + IFNγ 200 U, 48 h
  Cell surface expression (staining with directly labeled MAb): 6.2
[3]; BxPC-3, without IFN-γ
  Cell surface expression (staining with directly labeled MAb): 2.6
[4]; CAG
  % change of cell surface expression with IFNγ: −5.4%
  % change of cytoplasmic expression with IFNγ: 19.8%
[4]; CAG + IFNγ 200 U, 48 h
  Cell surface expression (staining with directly labeled MAb): 39.2
[4]; CAG, without IFN-γ
  Cell surface expression (staining with directly labeled MAb): 41.5
[5]; Capan + IFNγ 200 U, 48 h
  Cell surface expression (staining with directly labeled MAb): 11.1
[5]; Capan-1
  % change of cell surface expression with IFNγ: 152.4%
  % change of cytoplasmic expression with IFNγ: 561.2%
[5]; Capan-1, without IFN-γ
  Cell surface expression (staining with directly labeled MAb): 4.4
[6]; FSCCL
  % change of cell surface expression with IFNγ: 32.8%
  % change of cytoplasmic expression with IFNγ: 58.5%
[6]; FSCCL + IFNγ 200 U, 48 h
  Cell surface expression (staining with directly labeled MAb): 19.0
[6]; FSCCL, without IFN-γ
  Cell surface expression (staining with directly labeled MAb): 14.3
[7]; HT29
  % change of cell surface expression with IFNγ: 141.1%
  % change of cytoplasmic expression with IFNγ: 1766.6%
[7]; HT29 + IFNγ 200 U, 48 h
  Cell surface expression (staining with directly labeled MAb): 8.3
[7]; HT29, without IFN-γ
  Cell surface expression (staining with directly labeled MAb): 3.4
[8]; KMS11
  % change of cell surface expression with IFNγ: 14.0%
  % change of cytoplasmic expression with IFNγ: −1.9%
[8]; KMS11 + IFNγ 200 U, 48 h
  Cell surface expression (staining with directly labeled MAb): 5.1
[8]; KMS11, without IFN-γ
  Cell surface expression (staining with directly labeled MAb): 4.4
[9]; LS174T
  % change of cell surface expression with IFNγ: −11.3%
  % change of cytoplasmic expression with IFNγ: 112.7%
[9]; LS174T + IFNγ 200 U, 48 h
  Cell surface expression (staining with directly labeled MAb): 5.2
[9]; LS174T, without IFN-γ
  Cell surface expression (staining with directly labeled MAb): 5.9
[10]; Lovo
  % change of cell surface expression with IFNγ: 173.7%
  % change of cytoplasmic expression with IFNγ: 756.0%
[10]; Lovo + IFNγ 200 U, 48 h
  Cell surface expression (staining with directly labeled MAb): 9.2
[10]; Lovo, without IFN-γ
  Cell surface expression (staining with directly labeled MAb): 3.4
[11]; Moser
  % change of cell surface expression with IFNγ: 16.3%
  % change of cytoplasmic expression with IFNγ: 86.1%
[11]; Moser + IFNγ 200 U, 48 h
  Cell surface expression (staining with directly labeled MAb): 4.8
[11]; Moser, without IFN-γ
  Cell surface expression (staining with directly labeled MAb): 4.1
[12]; Panc-1
  % change of cell surface expression with IFNγ: 9.4%
  % change of cytoplasmic expression with IFNγ: 208.7%
[12]; Panc-1 + IFNγ 200 U, 48 h
  Cell surface expression (staining with directly labeled MAb): 4.9
[12]; Panc-1, without IFN-γ
  Cell surface expression (staining with directly labeled MAb): 4.5
[13]; RL
  % change of cell surface expression with IFNγ: 23.8%
  % change of cytoplasmic expression with IFNγ: 3.7%
[13]; RL + IFNγ 200 U, 48 h
  Cell surface expression (staining with directly labeled MAb): 25.0
[13]; RL, without IFN-γ
  Cell surface expression (staining with directly labeled MAb): 20.2
[14]; TU118
  % change of cell surface expression with IFNγ: 167.8%
  % change of cytoplasmic expression with IFNγ: 374.6%
[14]; TU118 + IFNγ 200 U, 48 h
  Cell surface expression (staining with directly labeled MAb): 19.2
[14]; TU118, without IFN-γ
  Cell surface expression (staining with directly labeled MAb): 7.17
[15]; U118
  % change of cell surface expression with IFNγ: 160.9%
  % change of cytoplasmic expression with IFNγ: 428.2%
[15]; U118 + IFNγ 200 U, 48 h
  Cell surface expression (staining with directly labeled MAb): 18.3
[15]; U118, without IFN-γ
  Cell surface expression (staining with directly labeled MAb): 7.0
[16]; U87
  % change of cell surface expression with IFNγ: 75.6%
  % change of cytoplasmic expression with IFNγ: 158.8%
[16]; U87 + IFNγ 200 U, 48 h
  Cell surface expression (staining with directly labeled MAb): 9.5
[16]; U87, without IFN-γ
  Cell surface expression (staining with directly labeled MAb): 5.4
[17]
  peak levels: 10 to 20 µg/mL
[18]
  weight loss or other side effects: did not cause any observed weight loss or other significant side effects

— patent US8591892B2, “FTY720 increases CD74 expression and sensitizes cancer cells to anti-CD74 antibody-mediated cell death” (The Ohio State University, priority 2011, dated 2013)
